Assay: yeast display, Sf9 membrane polyspecificity reagent, FACS + sequencing; frameworks hold sequencing errors
Procedure, shortened: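 Synthetic nanobody libraries on Saccharomyces cerevisiae BJ5465 were galactose-induced for 36–48 hours, stained 1 hour at 4 °C with 10% biotinylated, detergent-solubilized Sf9 membrane reagent and enriched on streptavidin microbeads. FACS then separated cells into low and high (top ~1%) gates by anti-HA (expression) and streptavidin (reagent binding) fluorescence. Genes were colony-PCR amplified, MiSeq 2 × 250 sequenced and CDR-length filtered. A clone's polyreactivity label is that of its gate of origin.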

Q: For “QVQLVESGGGLVQAGGSLRLSCAASGLTFRWYAMGWYRQAPGKERELVAAISSTGRTNYADSVKGRFTISRDNAKNTVYLQMNSLKPEDTAVYYCNKTQEFVHKYELDYWGQGTQVTVSS”, which “polyreactivity (PSR sort gate)” value is on record?
A: low polyreactivity

Q: Which “polyreactivity (PSR sort gate)” value does the source give for “QVQLVESGGGLVQAGGSLRLSCAASGLTFRYYSMGWYRQAPGKERELVAAISRRSGSTYYADSVKGRFTISGDNAKNTVYLQMNSLKPEDTAVYYCNADSTITGNLKRYDYWGQGTQVTVSS” here?
A: high polyreactivity

Q: For “QVQLVESGGGLVQAGGSLRLSCAASGLTFSFNAMGWYRQAPGKEREFVAAISWSGGSTYYADSVKGRFTISRDNAKITVYLQMNSLKPEDTAVYYCAAESRITRYRHTRYYYWGQGTQVTVSS”, which “polyreactivity (PSR sort gate)” value is on record?
A: high polyreactivity

Q: With “QVQLVESGGGLVQAGGSLRLSCAASGLTFSLNAMGWYRPAPGKERELVAAIRGSGGSTYYADSVKGRFTISRDNAKNTVYLQMNSLKPEDTAVYYCAASPKRVLRESGVYWGQGTQVTVSS” as the sequence, how does the “polyreactivity (PSR sort gate)” value read?
A: high polyreactivity

Q: Which “polyreactivity (PSR sort gate)” value does the source give for “QVQLVESGGGLVQAGGSLRLSCAASGLTFSLNAMGWYRQAPGKERELVAAISFSGGSTYYADSVKGRFTISRDNAKNTVYLQMNSLKPEDTAVYYCAVRKRVGRGRYGYWGQGTQVTVSS” here?
A: high polyreactivity

Q: With “QVQLVESGGGLVQAGGSLRLSCAASGLTFSLYAMGWYRQAHGKERELVAAISWTGGSTYYADSVKGRFTISRDNAKNTVYLQMNSLKPEDTAVYYCNARYTLFARYGYDYWGQGTQVTVSS” as the sequence, how does the “polyreactivity (PSR sort gate)” value read?
A: low polyreactivity

Q: For “QVQLVESGGGLVQAGGSLRLSCAASGLTFSRNAMGWYRQAPGKEWELVAAISGSGGSTYYADSVKGRFTISRDNAKYTVYLQMNSLKPEDTAVYYCAKVSRSKQKFDYWGQGTQVTVSS”, which “polyreactivity (PSR sort gate)” value is on record?
A: high polyreactivity

Q: With “QVQLVESGGGLVQAGGSLRLSCAASGLTFSRYAMGWYRQAPGKERELVAAITSIGGSTYYADSVKGRFTISRDNAKNTVYLQMNSLKPEDTAVYYCRAFFRRDYWGQGTQVNVSS” as the sequence, how does the “polyreactivity (PSR sort gate)” value read?
A: high polyreactivity

Q: With “QVQLVESGGGLVQAGGSLRLSCAASGLTFSSNAMGWSRQAPGKERELVAVITNGGSTNYADSVKGRFTISRDNAKNTVYLQMNSLKPEDTAVYYCAKDGGPAQDIGMDYWGQGTQVTVSS” as the sequence, how does the “polyreactivity (PSR sort gate)” value read?
A: low polyreactivity

Q: Which “polyreactivity (PSR sort gate)” value does the source give for “QVQLVESGGGLVQAGGSLRLSCAASGLTFSVYAMGWSRQAPGKERELVASITRSGGSTYYADSVKGRFTISRDNAKNTVYLQMNSLKPEDTADYYCNADKYYGFDYWGQGTQVTVSS” here?
A: high polyreactivity

Q: For “QVQLVESGGGLVQAGGSLRLSCAASGLTFSYYAMGWYRQAPGKERELVAAIDYSGGTTYADSVKGRFTISRDNAKNTVYLQMNSLKPEDTAVYYCAREWYQYSPYHRFDYWGQGTQVTVSS”, which “polyreactivity (PSR sort gate)” value is on record?
A: high polyreactivity

Q: With “QVQLVESGGGLVQAGGSLRLSCAASGLTFSYYTMGWYRPAPGKERELVAAITSSSGRTYYADSVKGRFSISRDNAKNTVYLQLNSLKPEDTAVYYCAADRWYREYDYWGLGTQVTVSS” as the sequence, how does the “polyreactivity (PSR sort gate)” value read?
A: low polyreactivity

Q: Which “polyreactivity (PSR sort gate)” value does the source give for “QVQLVESGGGLVQAGGSLRLSCAASGLTFTGNAMGWYRQAPGKEREFVAAIRWSAGSTYYADSVKGRFTISRDNAKNTVYLQMNSLKPEDTAVYYCNAALNVSGHYPNDYWGQGTQVNVSS” here?
A: low polyreactivity

Q: Which “polyreactivity (PSR sort gate)” value does the source give for “QVQLVESGGGLVQAGGSLRLSCAASGLTFTKNVMGWYRQAPGKERELVAVISRSGGSTYYADSVKGRFTISRDNAKNTVYLQMNSLKPEDTAVYYCNVKGPGPSRGNYWGQGTQVTVSS” here?
A: low polyreactivity

Q: With “QVQLVESGGGLVQAGGSLRLSCAASGLTFTPNAMGWYRQAPGKEREFVAAITWRGGRTYYADSVKGRFTISRDNAKNTVYLQMNSLKPEDTAVYYCAVTYRPTYQLDYWGQGTQVTVSS” as the sequence, how does the “polyreactivity (PSR sort gate)” value read?
A: high polyreactivity

Q: Which “polyreactivity (PSR sort gate)” value does the source give for “QVQLVESGGGLVQAGGSLRLSCAASGLTFTRYAMGWYIQAPGKEREMVAAISKNGGSTYYADSVKGRFTISRDNAKNTVYLQMNSLKPEDTAVYYCAARRSTSYPAGYDYRGQGTQVTVSS” here?
A: high polyreactivity

Q: Which “polyreactivity (PSR sort gate)” value does the source give for “QVQLVESGGGLVQAGGSLRLSCAASGLTFTSYAMGWYRQAPGKERELVAAIDWSGGRTYYADSVKGRFTISRDNAKNTVYLQMNSLKPEDTAVYYCAAYSRNRSLRFNYWGQGTQVTVSS” here?
A: high polyreactivity

Q: With “QVQLVESGGGLVQAGGSLRLSCAASGLTFTSYAMGWYRQAPGKERELVAAITAGGVSTYYADSEKGRFTISRDNAKNTVYLQMNSLKPEDTAVYYCAVDPPYSNPITINEDYWGQGTQVTVSS” as the sequence, how does the “polyreactivity (PSR sort gate)” value read?
A: low polyreactivity

Q: With “QVQLVESGGGLVQAGGSLRLSCAASGLTFTTYTMGWYRQAPGKERELVAAISSRGGSTYYADSVKGRFTISRDNAKNTVYLQMNRLKPEDTAVYYCNAPRPHRMDWGQGTQVTVSS” as the sequence, how does the “polyreactivity (PSR sort gate)” value read?
A: high polyreactivity

Q: With “QVQLVESGGGLVQAGGSLRLSCAASGLTFTTYTMGWYRQAPGKERELVAAISSRGGSTYYADSVKGRFTISRDNAKNTVYLQMNSLKPEDTAVYYFNAPRPHRMDWGQGTQVTVSS” as the sequence, how does the “polyreactivity (PSR sort gate)” value read?
A: high polyreactivity

Q: With “QVQLVESGGGLVQAGGSLRLSCAASGLTFVFYAMGWYRQAPGKETELVAAISSSGGSTNYADSVKGRFTISRDNEKNTVYLQMKSLKPEDTAVYYCAATPYYSQYDYWGQGTQVTVSS” as the sequence, how does the “polyreactivity (PSR sort gate)” value read?
A: high polyreactivity

Q: With “QVQLVESGGGLVQAGGSLRLSCAASGLTFVNYAMGWYRQAPGKERELVATISKTGGSTYYADSVKGRFTISRDNAKNTVYLQMNSLKPEDTAVYYCAVDAFYYKWYDYWGQGTQVTVSS” as the sequence, how does the “polyreactivity (PSR sort gate)” value read?
A: high polyreactivity

Q: For “QVQLVESGGGLVQAGGSLRLSCAASGLTFVPYAMGWSRQAPGNERELFAAITWSGGSTYYADSVKGRFTISRDNAKNTVYLQMNSLKQEDTAVYYCAADFLLSTSTEYYYWGHGTQVTVSS”, which “polyreactivity (PSR sort gate)” value is on record?
A: high polyreactivity

Q: Which “polyreactivity (PSR sort gate)” value does the source give for “QVQLVESGGGLVQAGGSLRLSCAASGLTFVYYAMGWYRQAPGKERELVAAISSGGRTYYADSVKGRFTISRDNAKNTVYLQMNSLKPEDTGVYYCAAYGGTHYTYRYDYWGQGTQVNVSS” here?
A: high polyreactivity

Q: Which “polyreactivity (PSR sort gate)” value does the source give for “QVQLVESGGGLVQAGGSLRLSCAASGLTFWDYAMGWYRQAPGKERELVAGINTRGTSTYYADSVKGRFTISRDNAKNTVYLQMNSLKPEDTAVYYCAAEFFGYWYGIQYDYWGQGTQVTVSS” here?
A: high polyreactivity

Q: With “QVQLVESGGGLVQAGGSLRLSCAASGLTFWWYAMGWYRQAPGKERELVAAISSSGGSTYYADSVKGRFTISRDIAKNTVYLQMNSLKPEDTAVYYCAVASWDNYWDPYGYWGQGTQVTVSS” as the sequence, how does the “polyreactivity (PSR sort gate)” value read?
A: low polyreactivity

Q: Which “polyreactivity (PSR sort gate)” value does the source give for “QVQLVESGGGLVQAGGSLRLSCAASGLTFWWYAMGWYRQAPGKQRELVAGITGGGSTSYADSVKGRFTISRDNAKNTVYLQMNSLKPEDTAVYYCAASPYNGQRTWYKYFFLGDYWGQGTQVTVSS” here?
A: high polyreactivity

Q: Which “polyreactivity (PSR sort gate)” value does the source give for “QVQLVESGGGLVQAGGSLRLSCAASGLTFWYYVMGWYRQAPGKERELVAAINIGGSTKYAYSVKGRFTISRDNAKNTVYLQMNSLKPEDTAVYYCAAQYYYTGTRSIRSFDYWGQGTQVTVSS” here?
A: low polyreactivity

Q: With “QVQLVESGGGLVQAGGSLRLSCAASGLTFYAYAMGWYRQAPGKERELVAAISWTGGRTYYADSVKGRFTISRDNAKNTVYLQMNSLKPEDTAVYYCAAEVFTTGSFRRYDYWGQGTQVTVSS” as the sequence, how does the “polyreactivity (PSR sort gate)” value read?
A: high polyreactivity

Q: For “QVQLVESGGGLVQAGGSLRLSCAASGLTFYGNAMGWYRQAPGKERELVAAISSSGGTTYYADSVKGRFTISRDNAKNTVYLQMNSLKPEDTAVYYCAARPSGGYESTRTRDYWGQGTQVTVSS”, which “polyreactivity (PSR sort gate)” value is on record?
A: low polyreactivity

Q: Which “polyreactivity (PSR sort gate)” value does the source give for “QVQLVESGGGLVQAGGSLRLSCAASGLTFYGYGMGWYRQAPGKERELVASITSGGNTYYADSVKGRFTISRDNAKNTVYLQMNSLKPEDTAVYYCAVTAIALYYSSGYYWGQGTQVTVSS” here?
A: low polyreactivity

Q: For “QVQLVESGGGLVQAGGSLRLSCAASGLTFYHYDMGWYRQAPGKERELVAAINFSAGITYYADSVKGRFTISRDNAKNTVYLQMNSLKPEDTAVYYCAAEPEWWWRGYGYWGQGTQVTVSS”, which “polyreactivity (PSR sort gate)” value is on record?
A: low polyreactivity

Q: For “QVQLVESGGGLVQAGGSLRLSCAASGLTFYLYAMGWYRQAPGKERELVAAITSAGITYADSVKGRFTISRDNAKNTVYLQMNSLKPEDTAVYYCASSIDCGKCLGRRYDYWGQGSQVTVSS”, which “polyreactivity (PSR sort gate)” value is on record?
A: low polyreactivity

Q: Which “polyreactivity (PSR sort gate)” value does the source give for “QVQLVESGGGLVQAGGSLRLSCAASGLTFYNNAMGWYRQAPGKERELVARISSGGSTYYADSVKGRFTISRDNAKNTVYLQMNSLKPEDTADYYCAAGRGYWWWYGYDYWGQGTQVTVSS” here?
A: low polyreactivity

Q: Which “polyreactivity (PSR sort gate)” value does the source give for “QVQLVESGGGLVQAGGSLRLSCAASGLTFYQNAMGWYRQAPGKERELVAAISSIGGTYYADSVKGRFTISRDNAKNTVYLQMNSLKPEDTAVYYCAKRSRYPYYPYGYWGQGTQVTVSS” here?
A: high polyreactivity

Q: Which “polyreactivity (PSR sort gate)” value does the source give for “QVQLVESGGGLVQAGGSLRLSCAASGLTFYQYAMGWYRQAPGKERELVAGITSGGSTKYADSVKGRFTISRDNAKNTVYLQMNSLKPEDTAVYYCAARFYAFRKGYYYWGQGTQVTVSS” here?
A: high polyreactivity

Q: For “QVQLVESGGGLVQAGGSLRLSCAASGLTFYQYAMGWYRQATGKETELVAAITSAGITYADSVKGRFTISRDNAKNTVYLQMNSLKPEDTAVYYCAKDDYFSYGYVEFDYWGQGTQVTVSS”, which “polyreactivity (PSR sort gate)” value is on record?
A: low polyreactivity

Q: Which “polyreactivity (PSR sort gate)” value does the source give for “QVQLVESGGGLVQAGGSLRLSCAASGLTFYRNAMGWYTQAPGKERELVATISSSGGSTYYADSVKGRFTISRDNEKNTVYLQMNSLKPEDTAVYYCNARYYSYGPGKTVRYRTGYYGYWGQGTQVTVSS” here?
A: high polyreactivity

Q: Which “polyreactivity (PSR sort gate)” value does the source give for “QVQLVESGGGLVQAGGSLRLSCAASGLTFYRYAMGWYRQARGKERELVAAISRRGGRTYSADSVKGRFTISRDNAKTTVYLQMNSLKPEDTAVYYCAAVTRDYRNDRRRQRYYYWGQGTQETVSS” here?
A: high polyreactivity

Q: Which “polyreactivity (PSR sort gate)” value does the source give for “QVQLVESGGGLVQAGGSLRLSCAASGLTFYSYAMGWYRQAPGKERELVADISWSGGSTYYADSVKGRFTISRDNAKNTVYLQMNSLQPEDTAVYYCAAEVFPGYDYWGQGTQVTVSS” here?
A: low polyreactivity

Q: With “QVQLVESGGGLVQAGGSLRLSCAASGLTFYTNAKGWYRQAPGKEREFVDAITSSGGRKYYADSVKGRFTISRDNAKNTVYLQMNSLKPEDTAVYYCAADARRPRIPEMYYWGQGTQVTVSS” as the sequence, how does the “polyreactivity (PSR sort gate)” value read?
A: high polyreactivity

Q: Which “polyreactivity (PSR sort gate)” value does the source give for “QVQLVESGGGLVQAGGSLRLSCAASGLTFYVYAMGWYRQAPGKEREFVAAISWSGTSTSYADSVKGRFTISRDNAKNTVYLQMNSLKPEDTAVYYCAADVHTPALYTYAAGDYWGQGTQVTVSS” here?
A: low polyreactivity

Q: For “QVQLVESGGGLVQAGGSLRLSCAASGLTFYVYTMGWYSQAPGKEWELVAAISSGTTTHYADSVKGRFTISRDNAMNTVYLQMNSLKPEDTAVYYCGADLYHYSRDGYWGQGTQVTVSS”, which “polyreactivity (PSR sort gate)” value is on record?
A: low polyreactivity
